Test results: the supplement of paper PMC11246515
± gives the standard deviation of the averaged measurements.

Test: total protein half-life in vivo (active degradation + dilution); higher = more stable protein
[1] = E. coli NCM3722 delta-clpP, growth: N-lim chemostat, doubling time 6 h
[2] = E. coli NCM3722 delta-lon, growth: N-lim chemostat, doubling time 6 h
[3] = E. coli NCM3722 delta-smpB, growth: N-lim chemostat, doubling time 6 h
[4] = wild type E. coli NCM3722, growth: C-lim chemostat, doubling time 3 h
[5] = wild type E. coli NCM3722, growth: C-lim chemostat, doubling time 6 h
[6] = wild type E. coli NCM3722, growth: C-lim chemostat, doubling time 12 h
[7] = wild type E. coli NCM3722, growth: N-lim chemostat, doubling time 6 h
[8] = wild type E. coli NCM3722, growth: N-lim chemostat, doubling time 12 h
[9] = wild type E. coli NCM3722, growth: P-lim chemostat, doubling time 6 h
[10] = wild type E. coli NCM3722, growth: P-lim chemostat, doubling time 12 h
[11] = E. coli NCM3722 delta-clpP delta-lon delta-hslV, growth: N-lim chemostat, doubling time 6 h
[12] = E. coli NCM3722 delta-hslV, growth: N-lim chemostat, doubling time 6 h

Sequence | total protein half-life in vivo [1] | total protein half-life in vivo [2] | total protein half-life in vivo [3] | total protein half-life in vivo [4] | total protein half-life in vivo [5] | total protein half-life in vivo [6] | total protein half-life in vivo [7] | total protein half-life in vivo [8] | total protein half-life in vivo [9] | total protein half-life in vivo [10] | total protein half-life in vivo [11] | total protein half-life in vivo [12]
MSELTDLLLQGPRSAPELRQRLAISQATFSRLVAREDRVIRFGKARATRYALLRPYRGIERIPVWRVDDTGKAHKFADIRLCWPQGSCLVTGADGDEQWFDGLPWYLTDLRPQGFLGRAWGRKLAAQLNLTDDIRLWQEEDVLYALTVFNGEYTGGWLVGEGNYQRWITAQHPAEIPLDQKLTHYEQLASDALAGEIVGSSAGGEQPKFTYYAQTPSGNKHVLVKFTVPQQTAVSQRWGDLLIAESIAAQILRDGGIHAIESTVLVTSNRQVFLEAERFDCKGNDGRLPIVSLEAVQSEFISSPGSWPQAMRRLCEQQLVTHQSVAQTEVIWAFGRLIANSDMHAGNLSFYLSEPPFALTPVYDMLPMVYAPNSAGMLRDAAIEVKFDLNVSKSAWLTAIPLAQQFWQTVARDPRISEAFRHIAQEMPEKIRQIEEKVARMGG | 5.39 ± 0.31 h | 5.71 ± 0.22 h | 4.46 ± 0.29 h | 2.95 ± 0.45 h | 5.9 ± 1.3 h | 10.9 ± 0.43 h | 4.54 ± 0.54 h | 9.16 ± 2.6 h | 2.5 h | 6.85 ± 3.4 h |  | 
MSEMIYGIHAVQALLERAPERFQEVFILKGREDKRLLPLIHALESQGVVIQLANRQYLDEKSDGAVHQGIIARVKPGRQYQENDLPDLIASLDQPFLLILDGVTDPHNLGACLRSADAAGVHAVIVPKDRSAQLNATAKKVACGAAESVPLIRVTNLARTMRMLQEENIWIVGTAGEADHTLYQSKMTGRLALVMGAEGEGMRRLTREHCDELISIPMAGSVSSLNVSVATGICLFEAVRQRS | 4.81 ± 0.49 h | 5.55 ± 0.52 h | 4.69 ± 0.23 h | 2.73 ± 0.46 h | 5.83 ± 0.66 h | 10.3 ± 0.25 h | 5.17 ± 0.15 h | 9.48 ± 0.31 h | 5.37 ± 0.4 h | 11.5 ± 0.28 h | 5.18 ± 0.29 h | 5.39 ± 0.28 h
MSEPLDLNQLAQKIKQWGLELGFQQVGITDTDLSESEPKLQAWLDKQYHGEMDWMARHGMLRARPHELLPGTLRVISVRMNYLPANAAFASTLKNPKLGYVSRYALGRDYHKLLRNRLKKLGEMIQQHCVSLNFRPFVDSAPILERPLAEKAGLGWTGKHSLILNREAGSFFFLGELLVDIPLPVDQPVEEGCGKCVACMTICPTGAIVEPYTVDARRCISYLTIELEGAIPEELRPLMGNRIYGCDDCQLICPWNRYSQLTTEEDFSPRKPLHAPELIELFAWSEEKFLKVTEGSAIRRIGHLRWLRNIAVALGNAPWDETILTALESRKGEHPLLDEHIAWAIAQQIERRNACIVEVQLPKKQRLVRVIEKGLPRDA |  | 2.85 ± 0.33 h | 1.41 h | > 4 h |  |  | 1.85 h |  |  | 3.79 h | 5.59 ± 0.68 h | 
MSEPLLIARTPDTELFLLPGMANRHGLITGATGTGKTVTLQKLAESLSEIGVPVFMADVKGDLTGVAQAGTVSEKLLARLKNIGVNDWQPHANPVVVWDIFGEKGHPVRATVSDLGPLLLARLLNLNDVQSGVLNIIFRIADDQGLLLLDFKDLRAITQYIGDNAKSFQNQYGNISSASVGAIQRGLLSLEQQGAAHFFGEPMLDIKDWMRTDANGKGVINILSAEKLYQMPKLYAASLLWMLSELYEQLPEAGDLEKPKLVFFFDEAHLLFNDAPQVLLDKIEQVIRLIRSKGVGVWFVSQNPSDIPDNVLGQLGNRVQHALRAFTPKDQKAVKAAAQTMRANPAFDTEKAIQELGTGEALISFLDAKGSPSVVERAMVIAPCSRMGPVTEDERNGLINHSPVYGKYEDEVDRESAYEMLQKGFQASTEQQNNPPAKGKEVAVDDGILGGLKDILFGTTGPRGGKKDGVVQTMAKSAARQVTNQIVRGMLGSLLGGRRR | 4.98 ± 0.19 h | 5.07 ± 0.26 h | 4.73 ± 0.25 h | 3.263 ± 0.025 h | 5.39 ± 0.34 h | 9.77 ± 0.81 h | 4.77 ± 0.15 h | 8.27 ± 0.62 h | 5.66 ± 0.28 h | 9.88 ± 0.78 h | 5.04 ± 0.57 h | 5.1 ± 0.27 h
MSEPMMWLLVRGVWETLAMTFVSGFFGFVIGLPVGVLLYVTRPGQIIANAKLYRTVSAIVNIFRSIPFIILLVWMIPFTRVIVGTSIGLQAAIVPLTVGAAPFIARMVENALLEIPTGLIEASRAMGATPMQIVRKVLLPEALPGLVNAATITLITLVGYSAMGGAVGAGGLGQIGYQYGYIGYNATVMNTVLVLLVILVYLIQFAGDRIVRAVTRK | 6.5 h | 5.881 ± 0.054 h | 5.76 ± 0.38 h | 3.25 ± 0.28 h | 6.38 h | 11.6 h | 6.095 ± 0.06 h | 11.6 ± 1.8 h | 6.63 ± 0.78 h |  | 6.59 h | 6.24 h
MSEQFLYFLQQMFNGVTLGSTYALIAIGYTMVYGIIGMINFAHGEVYMIGSYVSFMIIAALMMMGIDTGWLLVAAGFVGAIVIASAYGWSIERVAYRPVRNSKRLIALISAIGMSIFLQNYVSLTEGSRDVALPSLFNGQWVVGHSENFSASITTMQAVIWIVTFLAMLALTIFIRYSRMGRACRACAEDLKMASLLGINTDRVIALTFVIGAAMAAVAGVLLGQFYGVINPYIGFMAGMKAFTAAVLGGIGSIPGAMIGGLILGIAEALSSAYLSTEYKDVVSFALLILVLLVMPTGILGRPEVEKV [P0AEX7] |  |  | 6.44 ± 0.19 h | 2.75 ± 0.53 h |  |  | > 8 h |  |  | > 16 h | 6.2 h | > 8 h
MSEQLTDQVLVERVQKGDQKAFNLLVVRYQHKVASLVSRYVPSGDVPDVVQEAFIKAYRALDSFRGDSAFYTWLYRIAVNTAKNYLVAQGRRPPSSDVDAIEAENFESGGALKEISNPENLMLSEELRQIVFRTIESLPEDLRMAITLRELDGLSYEEIAAIMDCPVGTVRSRIFRAREAIDNKVQPLIRR [P0AGB6] | 6.37 ± 0.46 h | 7.1 ± 0.53 h | 6.14 ± 0.71 h | 3.49 ± 0.3 h | 5.85 ± 0.13 h | 11.8 ± 1.1 h | 5.76 ± 0.9 h | 11.3 ± 1.4 h | 5.63 ± 0.5 h | 12.6 ± 0.15 h | 5.283 ± 0.0063 h | 6.86 ± 0.17 h
